Source: patent publication US8835136B2, “Engineered amine dehydrogenases and methods of use thereof” (Georgia Tech Research Corporation, priority 2012, dated 2014)
Values joined by “and” are separate entries in the source; they are usually repeats but may differ in a detail not shown here. Identical values can stand only once.

Experiments:
[1] = C1-AmDH amination at 60° C. in 4 M ammonium formate buffer; format: biochemical
Experimental: (§1) All ketone substrates for the amination direction were measured at 20 mM and dissolved at 60° C. in 4 M ammonium formate buffer. Enzyme specificity was measured at 60° C. for 5 min. with NADH as the cofactor at 340 nm.
(§2) The values for acetophenone, pFPA; NADH and NH3 were determined and are summarized in Table XX, all measured at 60° C.

[2] = as above; format: biochemical; conditions: 20 mM
Experimental: as §1

[3] = C1-AmDH kinetic values; format: biochemical; conditions: 60° C.
Experimental: as §2

[4] = C1-AmDH amine activity measured photometrically; format: biochemical
Experimental: Activities were also measured photometrically with 100 mM (+/−) methylhenzylamine (0.58 U/mg) as well as 100 mM (R)-methylbenzylamine. (0.98 U/mg), 50 mM (R,S)-adamanylethlamine (0.04 U/mg) and determined the enantioselectivity for this enzyme to be (R).

[5] = Temperature vs activity profile for C1-AmDH; format: biochemical
Experimental: The temperature activity profile was determined over a wide range until the limits of the instrument were reached. […] In contrast it is barely active between 20-30° C., so all measurements for activity were determined routinely at 60° C. Product conversions were done at 40° C. and 50° C., due to the temperature limits for regeneration enzyme, FDH. Temperature activity profiles were determined for pFPA and acetophenone (FIGS. 22A and 22B).

[6] = T50 after 30 min (T50^30) of C1-AmDH; format: physicochemical
Experimental: The T50 (after 30 min—T50^30) was also determined for the C1-AmDH. The T50^30 value was determined to be dependent on the buffer, in PBS, the enzyme was staple for 30 min at 50 C, at 60 C an beyond the enzyme deactivated within the timescale of the experiment. In the presence of 4M ammonium formate buffer we found the T50^30 value was determined to be at 70 C.

[7] = Substrate conversion using C1-AmDH and cb-FDH, chiral GC; format: biochemical
Experimental: Product formation was characterized for two substrates. The test assay utilized the C1-AmDH in 24 h conversion at 40° C. with cofactor regeneration in a biphasic solvent system with heptane as the organic layer and 5 M ammonium formate as the aqueous layer. Conversions were also carried out at 50° C., which is the upper limit for the cofactor regeneration enzyme FDH.
This is not a quantitative evaluation, since amines are more water soluble than their ketone counterparts and only the organic layer was used for chiral gas chromatography (GC). The peaks were compared to the corresponding standard amines and both determined to be R-specific (FIGS. 24A and 24B).

B1: C1-AmDH: chimeric AmDH: F-AmDH substrate binding domain with L-AmDH NAD-binding domain, SEQ ID NO:20 (protein)
chain: SLVEKTSIIKDFTLFEKMSEHEQVVFCNDPATGLRAIIAIHDTTLGPALGGCRMQPYNSVEEALEDALRLSKGMTYSCAASDVDFGGGKAVIIGDPQKDKSPELFRAFGQFVDSLGGRFYTGTDMGTNMEDFIHAMKETNCIVGVPEAYGSSGNPSPATAYGVYRGMKAAAKEAFGSDSLEGKVVAVQGVGNVAYHLCRHLHEEGAKLIVTDINKEAVARAVEEFGAKAVDPNDIYGVECDIFAPCALGGIINDQTIPQLKAKVIAGSALNQLKEPRHGDMIHEMGIVYAPDYVINAGGCINVADELYGYNRERAMKKIEQIYDNIEKVFAIAKRDNIPTYVAADRMAEERIETMRKARSQFLQNGHHILSRRRAR
kcat, Acetophenone [1]: 0.24 s⁻¹
kcat, pFPA [1]: 1.24 s^−1
Acetophenone, U/mg ([1]; 20 mM, 4 M ammonium formate): 0.3 U/mg and 0.3019 U/mg
Acetophenone, U/ml ([1]; 20 mM, 4 M ammonium formate): 1.63 U/ml
pFPA, U/mg ([1]; 20 mM, 4 M ammonium formate): 1.7 U/mg and 1.725 U/mg
pFPA, U/ml ([1]; 20 mM, 4 M ammonium formate): 13.8 U/ml
Km ([1]; read-out: KM, Acetophenone): 5200 µM
Km ([1]; read-out: KM, pFPA): 1100 µM
1,3-phenylbutanedione, U/mg [2]: 0.06 U/mg
1,3-phenylbutanedione, U/ml [2]: 0.3 U/ml
3-methyl-1-phenylbutanone, U/mg [2]: 0.03 U/mg
3-methyl-1-phenylbutanone, U/ml [2]: 0.16 U/ml
3-oxo-phenylbutyricacid ethylester, U/mg [2]: 0 U/mg
3-oxo-phenylbutyricacid ethylester, U/ml [2]: 0 U/ml
Adamantylmethylketone, U/mg [2]: 0.07 U/mg
Adamantylmethylketone, U/ml [2]: 0 U/ml
Benzophenone, U/mg [2]: 0 U/mg
Benzophenone, U/ml [2]: 0 U/ml
a-tetralone, U/mg [2]: 0.1 U/mg and 0.1074 U/mg
a-tetralone, U/ml [2]: 0.58 U/ml
b-tetralone, U/mg [2]: 0 U/mg
b-tetralone, U/ml [2]: 0 U/ml
dibenzylketone, U/ml [2]: 1.39 U/ml
pinacolone, U/mg [2]: 0.1333 U/mg
pinacolone, U/ml [2]: 0.72 U/ml
kcat, NADH [3]: 0.92 s⁻¹
kcat, NH3 [3]: 1.09 s⁻¹
Km ([3]; read-out: KM, NADH): 40 µM
enantioselectivity [4]: (R)
activity, (R,S)-adamanylethlamine ([4]; 50 mM): 0.04 U/mg
activity, (+/−) methylhenzylamine ([4]; 100 mM): 0.58 U/mg
activity, (R)-methylbenzylamine ([4]; 100 mM): 0.98 U/mg
temperature activity profile [5]: did not show any decline of activity up to 80 °C
T50^30 value ([6]; 4M ammonium formate buffer, 30 min): 70 C
temperature at which stable for 30 min ([6]; in PBS): 50 C
product formation from methylcyclohexanone ([7]; 24 h, 40° C., heptane / 5 M ammonium formate): no product
enantiospecificity of product amines ([7]; methylbenzylamine and p-fluorophenylproplyamin, chiral GC, organic layer): R-specific
